Data on six substances can be found in paper doi:10.1101/2020.12.02.407882.

For experiment [1], the target named is 1G4 TCR carrying βA291 (TCRαβ with HA-tagged β Y291A). Kind of experiment: co-IP.
In experiment [2] the target is 1G4 TCR, wild type (TCRαβ with HA-tagged β). Kind of experiment: co-IP.
For experiment [3], the target named is QM-α TCR (1G4 variant with mutations in αCDR2, βCDR2 and βCDR3; TCRαβ with HA-tagged β). Kind of experiment: pull-down.

Substance “CD3γ, endogenous in J76 Jurkat cells (from UniProt P09693 23-182) (natural protein)” returned a reduction of recovery (γ/βT) against 1G4-WT in experiment [1] of 40%.
Consider “CD3ζ carrying ζA41 (I41A), expressed in J76-1G4WT-ζKO (from UniProt P20963-1 22-164) (natural protein)”, for which the ζ/β2 ratio against ζWT (ratio, ζWT = 1) in experiment [2] stood at 0.25.
As to “CD3ε, endogenous in J76 Jurkat cells (from UniProt P07766 23-207) (natural protein)”, the ε/βT ratio against 1G4-WT (ratio, 1G4-WT = 1) in experiment [1] was 0.5.
Turning to “CD3ζ carrying ζA38 (I38A), expressed in J76-1G4WT-ζKO (from UniProt P20963-1 22-164) (natural protein)”, in experiment [2], the ζ/β2 ratio against ζWT (ratio, ζWT = 1) came out at 0.05.
On to “CD3ζ (ζζ dimer), endogenous in J76 Jurkat cells (from UniProt P20963-1 22-164) (natural protein)”, for which the reduction of ζ/β2 ratio, (9V-A2)4-His-bound against unliganded QM-α in experiment [3] was 40%. Moreover, the ζ/β2 ratio against 1G4-WT (ratio, 1G4-WT = 1) in experiment [1] turned out to be 0.2.
Regarding “CD3δ, endogenous in J76 Jurkat cells (from UniProt P04234 22-171) (natural protein)”, the reduction of recovery (δ/βT) against 1G4-WT in experiment [1] is 10%.
